# Measurements reported in the RNAGym collection of RNA variant scans (doi:10.1021/acssynbio.7b00057).
# B1: Pistol ribozyme (parent)
# chain: GGGUCGUUGUUCCAUAAUCGCGUGGAUAUGGCACGCAAGUUUCUACCGGGCACCGUAAAUGUCCGACUGGAGCCGUUCGGGCGGCUAUAAACAGACCUCAGGCCCGAAGCGUGGCGGCACCUGCCGCCGGUGGUAAAAAAGAUCGGAAGAGCACACGUCU
# Variants of: B1
# Test: aptazyme ON/OFF ratio, guanine; higher = stronger switching; co-transcriptional cleavage with and without guanine
row,Variant,aptazyme ON/OFF ratio
1,U7A U8C U10C C12U,3.63
2,U7A U8C U10C C12G,1.46
3,U7A U8C U10G C12A,1.21
4,U7A U8C U10G C12U,1.27
5,U7A U8C U10G C12G,1.12
6,U7A U8C G9U U10C U11C C13U,1.03
7,U7A U8C G9U U10C U11C C13A,1.01
8,U7A U8C G9U U10C U11C C13G,1.02
9,U7A U8C G9U U11G C12U C13G,1.14
10,U7A U8C G9U U11G C12U C13U,1.28
11,U7A U8C G9U U11G C12U C13A,1.22
12,U7A U8C G9U U11C C13U,1.05
13,U7A U8C G9U U11C C13G,1.03
14,U7A U8C G9U U11C C13A,1.04
15,U7A U8C U10A U11A C12A,1.17
16,U7A U8C U10A U11A C12G,1.23
17,U7A U8C U10A U11A C12U,1.18
18,U7A U8C G9U U10G U11C C13A,1.17
19,U7A U8C G9U U10G U11C C13U,1.03
20,U7A U8C G9U U10G U11C C13G,1.08
21,U7A U8C G9U U11C C12U C13G,1.04

row,Variant,aptazyme ON/OFF ratio
1,U7A U8C G9U U11C C12U C13U,1.17
2,U7A U8C G9U U11C C12U C13A,1.12
3,U7A U8C U10C U11C C12U C13G,1.23
4,U7A U8C U10C U11C C12U C13A,1.06
5,U7A U8C U10C U11C C12U C13U,1.07
6,U7A U8C U10C U11A C12G C13G,1.22
7,U7A U8C U10C U11A C12G C13U,1.21
8,U7A U8C U10C U11A C12G C13A,1.17
9,U7A U8C U10C U11A C12A C13G,1.15
10,U7A U8C U10C U11A C12A C13A,1.18
11,U7A U8C U10C U11A C12A C13U,1.21
12,U7A U8C U10A C12U,1.1
13,U7A U8C U10A C12A,1.24
14,U7A U8C U10A C12G,1.18
15,U7A U8C U10G U11G C12G C13G,1.19
16,U7A U8C U10G U11G C12G C13U,1.4
17,U7A U8C U10G U11G C12G C13A,1.08
18,U7A U8C G9U U10C U11G C13A,1.17
19,U7A U8C G9U U10C U11G C13U,1.25
20,U7A U8C G9U U10C U11G C13G,1.31
21,U7A U8C U10G U11A C12U C13U,1.2

row,Variant,aptazyme ON/OFF ratio
1,U7A U8C U10G U11A C12U C13G,1.14
2,U7A U8C U10G U11A C12U C13A,1.2
3,U7A U8C U10A U11A C12A C13A,1.07
4,U7A U8C U10A U11A C12A C13G,1.15
5,U7A U8C U10A U11A C12A C13U,1.17
6,U7A U8C G9U U10G C12G,1.13
7,U7A U8C G9U U10G C12U,1.17
8,U7A U8C G9U U10G C12A,1.53
9,U7A U8C U10A U11C C12U,1.03
10,U7A U8C U10A U11C C12G,1.1
11,U7A U8C U10A U11C C12A,1.09
12,U7A U8C U10G C12G C13A,1.09
13,U7A U8C U10G C12G C13U,1.19
14,U7A U8C U10G C12G C13G,1.11
15,U7A U8C U10G U11G C12A,1.25
16,U7A U8C U10G U11G C12G,1.04
17,U7A U8C U10G U11G C12U,1.34
18,U7A U8C G9U U11G C12A C13U,1.17
19,U7A U8C G9U U11G C12A C13A,1.22
20,U7A U8C G9U U11G C12A C13G,1.27
21,U7A U8C U10C C12A C13U,1.26

row,Variant,aptazyme ON/OFF ratio
1,U7A U8C U10C C12A C13G,1.15
2,U7A U8C U10C C12A C13A,1.25
3,U7A U8C G9U U10G C12A C13A,1.45
4,U7A U8C G9U U10G C12A C13G,1.18
5,U7A U8C G9U U10G C12A C13U,1.07
6,U7A U8C G9U U11A C13U,1.28
7,U7A U8C G9U U11A C13G,1.07
8,U7A U8C G9U U11A C13A,1.13
9,U7A U8C G9U U11A C12A C13U,1.33
10,U7A U8C G9U U11A C12A C13G,1.24
11,U7A U8C G9U U11A C12A C13A,1.42
12,U7A U8C U10G U11A C12A C13U,1.32
13,U7A U8C U10G U11A C12A C13G,1.15
14,U7A U8C U10G U11A C12A C13A,1.28
15,U7A U8C U10C U11C C12A,1.14
16,U7A U8C U10C U11C C12U,1.04
17,U7A U8C U10C U11C C12G,1.19
18,U7A U8C U10C U11C C12G C13G,1.1
19,U7A U8C U10C U11C C12G C13A,1.12
20,U7A U8C U10C U11C C12G C13U,1.09
